Laboratory results: article PMC10093686, “Structural insights into acetylated histone ligand recognition by the BDP1 bromodomain of Plasmodium falciparum” (International journal of biological macromolecules, 2022)
Where two headings read alike, the source gives them in different places.

Tests used:
[1] = target: PfBDP1-BRD (residues 303–488 or 333–456), bromodomain of P. falciparum Bromodomain Protein 1, as used in ITC (P. falciparum) (UniProt Q8IJ72); experiment: ITC; histone peptide (2.5–5.0 mM) in the syringe, PfBDP1-BRD (303–488 or 333–456; 100–200 μM) in the sample cell; 5°C; 20 mM sodium phosphate pH 7.5, 150 mM NaCl, 1 mM TCEP; 1:1 binding model, single set of identical sites
[2] = target: PfBDP1-BRD (residues 303–488 or 333–456), bromodomain of P. falciparum Bromodomain Protein 1, as used in ITC (P. falciparum) (UniProt Q8IJ72); experiment: as above; remark: listed apart in the source

**Q.** With “H4K5acK8acK12acK16ac histone peptide (1–24), tetra-acetylated histone H4” as the substance, how does the Kd [1] read?
**A.** Its Kd is 117 µM.

**Q.** And the Kd [2]?
**A.** Its Kd is 173 µM.
